In article PMC12727526, “Carbon-monoxide-driven bioethanol production operates through a tungsten-dependent catalyst” (Nature Chemical Biology, 2025):

T1: CaAFOR (AOR1) (Clostridium autoethanogenum, UniProt A0ABM5NPY3)
T1 construct: gene CAETHG_0092
T1 sequence (A0ABM5NPY3 1-607): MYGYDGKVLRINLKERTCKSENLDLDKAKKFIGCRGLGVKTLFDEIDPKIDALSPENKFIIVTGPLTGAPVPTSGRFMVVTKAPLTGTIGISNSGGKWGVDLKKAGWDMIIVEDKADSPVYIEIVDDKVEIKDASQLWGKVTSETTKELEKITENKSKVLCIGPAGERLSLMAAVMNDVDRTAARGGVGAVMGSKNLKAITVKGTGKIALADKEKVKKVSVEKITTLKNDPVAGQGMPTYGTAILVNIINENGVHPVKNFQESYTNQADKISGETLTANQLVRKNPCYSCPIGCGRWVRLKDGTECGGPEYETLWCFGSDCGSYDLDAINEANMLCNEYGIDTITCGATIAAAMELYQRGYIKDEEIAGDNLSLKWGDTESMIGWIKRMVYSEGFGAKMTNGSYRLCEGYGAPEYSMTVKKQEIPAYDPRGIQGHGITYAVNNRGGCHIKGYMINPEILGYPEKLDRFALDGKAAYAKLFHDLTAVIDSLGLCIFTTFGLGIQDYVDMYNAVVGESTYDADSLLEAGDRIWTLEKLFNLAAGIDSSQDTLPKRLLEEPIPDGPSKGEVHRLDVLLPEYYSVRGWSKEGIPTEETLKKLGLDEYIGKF


Key:
CaAFOR (AOR1) = target: T1, CaAFOR (AOR1); settings: pH 5.5 or 6.5, 37 °C; CO-driven, ferredoxin, CODH/ACS, S. cerevisiae ADH, 0.2 mM NADH; total sodium acetate; apparent
purified protein [1] = substrate: CC(=O)O; assay: purified protein; settings: pH 5.5, 37 °C, CO-driven, ferredoxin, CODH/ACS, S. cerevisiae ADH, 0.2 mM NADH, concentration of protonated acid calculated from total acetate with pKa 4.76, apparent, estimated
purified protein [2] = substrate: CCC=O; assay: purified protein; type: biochemical, Clostridium autoethanogenum; settings: pH 8.0 (50 mM Tris-HCl), 37 °C, 5 mM methyl viologen, anaerobic, enzyme reactivated by preincubation with ferredoxin, apparent
purified protein [3] = substrate: CC=O; assay: purified protein; type: biochemical, Clostridium autoethanogenum; settings: pH 8.0 (50 mM Tris-HCl), 37 °C, 5 mM methyl viologen, anaerobic, enzyme reactivated by preincubation with ferredoxin, apparent
purified protein [4] = substrate: CCCC=O; assay: purified protein; type: biochemical, Clostridium autoethanogenum; settings: pH 8.0 (50 mM Tris-HCl), 37 °C, 5 mM methyl viologen, anaerobic, enzyme reactivated by preincubation with ferredoxin, apparent

kM^app (CaAFOR (AOR1))	Molecule	Km (purified protein [1]) [µM]	Km (purified protein [2]) [µM]	kcat (purified protein [2]) [s⁻¹]	Km (purified protein [3]) [µM]	kcat (purified protein [3]) [s⁻¹]	Km (purified protein [4]) [µM]	kcat (purified protein [4]) [s⁻¹]
the high kM^app of CaAFOR for acetate	CC(=O)O [acetate]							
	CaAFOR (AOR1) (Clostridium autoethanogenum DSM 10061) (protein, native anaerobic purification from CO-grown cells; full length, no tag; monomer, expected mass 66,335 Da; holds [4Fe-4S] and tungstopterin) MYGYDGKVLRINLKERTCKSENLDLDKAKKFIGCRGLGVKTLFDEIDPKIDALSPENKFIIVTGPLTGAPVPTSGRFMVVTKAPLTGTIGISNSGGKWGVDLKKAGWDMIIVEDKADSPVYIEIVDDKVEIKDASQLWGKVTSETTKELEKITENKSKVLCIGPAGERLSLMAAVMNDVDRTAARGGVGAVMGSKNLKAITVKGTGKIALADKEKVKKVSVEKITTLKNDPVAGQGMPTYGTAILVNIINENGVHPVKNFQESYTNQADKISGETLTANQLVRKNPCYSCPIGCGRWVRLKDGTECGGPEYETLWCFGSDCGSYDLDAINEANMLCNEYGIDTITCGATIAAAMELYQRGYIKDEEIAGDNLSLKWGDTESMIGWIKRMVYSEGFGAKMTNGSYRLCEGYGAPEYSMTVKKQEIPAYDPRGIQGHGITYAVNNRGGCHIKGYMINPEILGYPEKLDRFALDGKAAYAKLFHDLTAVIDSLGLCIFTTFGLGIQDYVDMYNAVVGESTYDADSLLEAGDRIWTLEKLFNLAAGIDSSQDTLPKRLLEEPIPDGPSKGEVHRLDVLLPEYYSVRGWSKEGIPTEETLKKLGLDEYIGKF	1630	165.51 ± 50.50	10.35 ± 1.06	54.40 ± 12.55	4.42 ± 0.31	53.47 ± 19.45	4.27 ± 0.48
